Measured values published in publication PMC5477544, “Structural and mechanistic basis of differentiated inhibitors of the acute pancreatitis target kynurenine-3-monooxygenase” (Nature Communications, 2017).

Substrate: Nc1ccccc1C(=O)CC(N)C(=O)O
Assay: purified protein, by the assay type
Settings: other: human KMO, 200 μM NADPH

B1: human KMO (Homo sapiens) (protein)
chain: MDSSVIQRKKVAVIGGGLVGSLQACFLAKRNFQIDVYEAREDTRVATFTRGRSINLALSHRGRQALKAVGLEDQIVSQGIPMRARMIHSLSGKKSAIPYGTKSQYILSVSRENLNKDLLTAAEKYPNVKMHFNHRLLKCNPEEGMITVLGSDKVPKDVTCDLIVGCDGAYSTVRSHLMKKPRFDYSQQYIPHGYMELTIPPKNGDYAMEPNYLHIWPRNTFMMIALPNMNKSFTCTLFMPFEEFEKLLTSNDVVDFFQKYFPDAIPLIGEKLLVQDFFLLPAQPMISVKCSSFHFKSHCVLLGDAAHAIVPFFGQGMNAGFEDCLVFDELMDKFSNDLSLCLPVFSRLRIPDDHAISDLSMYNYIEMRAHVNSSWFIFQKNMERFLHAIMPSTFIPLYTMVTFSRIRYHEAVQRWHWQKKVINKGLFFLGSLIAISSTYLLIHYMSPRSFLRLRRPWNWIAHFRNTTCFPAKAVDSLEQISNLISR
Protein B1 has a Km of 2 µM and a kcat of 0.24 s⁻¹.
